# Test results as given in the nanobody polyreactivity screen of Harvey et al. (2022).
# Assay: yeast display, Sf9 membrane polyspecificity reagent, FACS + sequencing; frameworks hold sequencing errors
# Procedure, shortened: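 Using colony PCR, genes from sorted yeast display clones were amplified, then sequenced on MiSeq at 2 × 250 and filtered by CDR length. The clones had been stained with 10% biotinylated, detergent-solubilized Sf9 membrane reagent for 1 hour at 4 °C and sorted by FACS into low and high (top ~1%) gates on anti-HA and streptavidin fluorescence. Polyreactivity labels come from the gate of origin.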
row,Sequence,polyreactivity (PSR sort gate)
1,QVQQHESGGGLVQAGGSLRLTCAASGTISESGLMGWYRQAPGKERELVAGISSGGITNYADSVKGRFTISRDIAINTVYLQMNSPKPEDTAEYWGQGSQVTVSS,low polyreactivity
2,QVQQQESGGGLVQAGGSLRLSCAASGTIFQLTFMGRYRQAPGKERELVASIDYGGNTNYADSVKGRFTISRDNAKNNVYLQMNSLKPEDTAVYYCAASSDSWTTHPYWGQGTHVTVSS,low polyreactivity
3,QVQREESGGGLVQAGGSLRLSCAASGITFKWYAMGWYRQAPGKEREFVAIISTRGGSTYYADSVKGRFTISRDNAKNTVYLQMNSLKPVDTAVYYCNAVRSRVVHRRGDFDYWGQGTQVTVSS,high polyreactivity
4,QVQREESGGGLVQAGGSLRLSCVASGSTFRYYAMGWYRQSPGTERELVAAITWRGTSTYYADSVKGRFTISRDNAKNTVYLQMNSLKPEDTAVYYCNAAGYWPATGDYWGQGTQVTVSW,high polyreactivity
5,QVQRVESGGCLVQAGGSLRLSCAASGIIFGDNVRGWYRQSPGKERQLVAAITSDGSTNYADSVKGRFTISSDNEKNNVYLQMNSLKPEDTAVYYCNVSASYYSPDPKVLVRYDYWGQGSQVTVSS,low polyreactivity
6,QVQRVESGGGIVQAGVSLSLSCPASGRIFTSNAMGWYRQEPGKERELVAAIRWSDGSTYYADSVKGRFTISRDNAKNTVYLQMNSLKPEDTAVYYCAADTRTSYYNDDYVFWGQGTQVTVSS,low polyreactivity
7,QVQRVESGGGLVPAGGSLRLSCAASGSIFYYNAMGWYRQAPGKERELVAAISWGDGITYYADSVKGRFTISRDNAKKTVYVQMNSLKPEDTAVYYCAVDYYYLPYEYWGQGTQVTVSS,high polyreactivity
8,QVQRVESGGGLVQAGGRLRLSCAASGLIFAHDARGWYRQAPGKERELVAGINRSGGSTYYADSVKGRFTISRDNAKNTVYLQTNSLKPEDTAVYYCAARRAYPRPGYDYWGQGTQVTVSS,high polyreactivity
9,QVQRVESGGGLVQAGGSLRISCAASGLTINNYARGWYRQAPGKERELVAAISFSGGDTYYADSVKGRFTISRDNAKNTVYLQMNSLKPEDTGVYYFAAESYSVLQMGYWGQGTQVTVSS,high polyreactivity
10,QVQRVESGGGLVQAGGSLRLSCAASAFTFGANAMGWSRQAPGKERELVAAISVSDGITYYADSVKGRFTISRDNAKNTVYLLMNSLKPEDTAVYYCAAETYGYLFHSYDYWGQGTQVTVSS,low polyreactivity
11,QVQRVESGGGLVQAGGSLRLSCAASANTYLNAMGWYIQAPGKESELVAAISKGGADTYYADSVKGRFTISRDNAKNTVYLQMTSLIPEDSAVYYCADVGYADGWWVDYPWTYDYWGQGTQVTVSS,low polyreactivity
12,QVQRVESGGGLVQAGGSLRLSCAASGFIFPWYAMGWYRQAPGKESELVAAISRGGRTNYADSVKGRFTISRDNAKNTVYLQMNSLKPEDTAVYYCAKKYYLSGSRADDSGGQGTQVTVSS,high polyreactivity
13,QVQRVESGGGLVQAGGSLRLSCAASGIIFQSYAMGWYRQAPGKERELVAAISRRGRRTYYADSVKGRFTFSRDNAKNTVDLQMTSLKPEDTAVYYCADRYRYAPYDYWGQGTQVTVSS,high polyreactivity
14,QVQRVESGGGLVQAGGSLRLSCAASGLTFNNNAMGCYRQAPGTARELVAAISRTAVRTYYADSVKGRFTISRDNAKNTVYLQMNSLKPEDTAVYYCNGVSYYGGYPVTYDYWGQGTQVTVSS,high polyreactivity
15,QVQRVESGGGLVQAGGSLRLSCAASGLTSKFYAMGWYRQAPRKERELVAAISGSGGSTYYADSVKGRFTISRDKAKNTVYLQMNSLKPEDTAVYYFAARYFGLRYYYWGQGTQVTVSS,high polyreactivity
16,QVQRVESGGGLVQAGGSLRLSCAASGRIFRYNAMGWYRQAPGKERELVAAISGTADRTYYADSVKGRFTNSRDNAKNTVYLQMNSLKPEDTAVYYCAVAYSYRYYYWGQGTQVTVSS,high polyreactivity
17,QVQRVESGGGLVQAGGSLRLSCAASGRIFSIYGMGWYRQAPGKERELVAVISGSVGITYYADSVKGRFTISRDNAKNTVYLQINSLKPEDTAVFYCNAKVRRRKYDYWGQGTQVTVSS,high polyreactivity
18,QVQRVESGGGLVQAGGSLRLSCAASGRPFDVYALGGYRQAPGKERELVATITYSGGITYYADSVKGRFTISRDNAKTTVYLQMNSLKPEDTAVYYPIGVGGDYDYWGQGTQVTVSS,low polyreactivity
19,QVQRVESGGGLVQAGGSLRLSCAASGRTFAPNAMGWYRQAPGKERELVAAITRRTGSTYYADSVKGRFTISRDNAKNTVYLQMNSLKPEDTAVYYCNGRRRTWYGFYYWGQGTQVTVSS,high polyreactivity
20,QVQRVESGGGLVQAGGSLRLSCAASGSIFRGYAMGWYRQEPEKERELVAAISRRGGSTYYADSVKGRFTISRDNAKNTVYLQMNSLKPEDTAVYYCAIDGTGAGTYDYWGQGTQVTVSS,low polyreactivity
21,QVQRVESGGGLVQAGGSLRLSCAASGSIFYWYAMGWNIQAPGEEREFVAAITWSGGSTYYADSVKGRFTISRDNAKNTVYLQMNSLQPEDTAVYSCAAQGRRYGYGDFYYWGQGSQVTVSS,high polyreactivity
22,QVQRVESGGGLVQAGGSLRLSCAASGSTFTRYGMGWYRQAPGKERELVAAISDRGVSTYYADSVKGRFTISRDNAKNTVYLQMNRMKPEDTAVYYCAAVFWVDILPGDYWGQGTQVTVSS,low polyreactivity

row,Sequence,polyreactivity (PSR sort gate)
1,QVQRVESGGGLVQAGGSLRLSCAASGSTFYFYARGWYRQAPGKERELVAVITDGGAITYYADSVKGRFTISRDNAKNTVYLQMNSLKPEDTAVYYCAASSFGWYTRYDYWGQGTQVTVSS,high polyreactivity
2,QVQRVESGGGLVQAGGSLRLSCAASGSTLGYYTMGWYRQAPGKERELVAAIDWSGGSTYYADSVKGRFTISRDNAKNTGYLQMNSLKPEDTAVYYCNAEPWDPFYSPGRGGMDYWGQGTQVTVSS,low polyreactivity
3,QVQRVESGGGLVQAGGSLRLSSADSGLTLYRYAMGWYRQAPGKERELVAAISSGDRTNYADSVKGRFTISRDNAKNTVYLHMNSLKPEDTAVYYCAALRQARQKKYGYWGQGTQVTVSS,high polyreactivity
4,QVQRVESGGGLVQAGGSLRLSWAASGSTFSRYAMGWYRQAPGTERELVAAISASGGGTYYADSVKGRFTISRDNAKNTVYLQMNSLQPEDTAVFYCAAVRIARAVQDYDYWGQGTQVTVSS,high polyreactivity
5,QVQRVESGGGLVQAGGSLRLTSAVSGTTFYIYAMGWYRQAPGKEREFVAAIDFSGSSTYADSVKGRFTISRDNAKNTVYLQMNSLKPEDTEVYYCAAYQIFQYDGPYDYWGQGTQVTVSS,low polyreactivity
6,QVQRVESGGGLVQAGGSRRLSCAASGNIFRRYTMGWYRQAPGKERELVAAISRRGGSTHYADSVKGRFTISRDNAKNTVYLQMNSLKPEDTAVYYCNAYLVYSYSPSHYYGFGYWGQGTQVTVSS,high polyreactivity
7,QVQRVESGGGLVQAGGSRRLSCAASGSIFSAYAMGWYRQAPGKEREFVAAITRRGGNTYYADSVKGRFTISRDNAKNTVYLQMNSLKPDDTAVYYCAADAGGGPFDYSGQGTQVTVSS,low polyreactivity
8,QVQRVESGGGLVQAGGSRRLTCAASGRTSVPYARGWYRQAPGKERELVAAITSGGSTYYADSVKGRFTISRDNAKNTVYLQMNSLKPEDTAVYYCAASLPHSAPYTASYGSWGQGTQVTVSS,low polyreactivity
9,QVQRVESGGGLVQAGGTLRLSCAASGNTFDYYAMGWYRQAPGKERELVAAIRYRGGTTYYADSVKGRFTISRDNAKNTVYLQMNSLKPEDTAVYYCAARYVPYSRRYNYWGQGTQVTVSS,high polyreactivity
10,QVQRVESGGGLVQARGSLRLSCAASGRIFYRYAMGWNIQAPGKERELVAAISGSVGSTYADSVKGRFTISRDNAKNTVYLQMNSLKPEDTAVYYCARETYRRYGAYDYWGQGTQVSVSS,low polyreactivity
11,QVQRVETGGGLFQAGGSLRLSCAASGRTFGPYAMGWYIQAPGKERELVAAIRYIDDSTFYADSVKGRFTISRDNAKNTVYVQMNSLKPEDTAVYYCAAQRRVVGRHGLSLIRYDYWGQGTQVTVSS,low polyreactivity
12,QVQVESGGGLVQAGGSLRLSCGASGSIIDQYVMGWYRQAPGKERELVAAISRGGRTYYADSVKGRFTISRDNAKNTVYLQMNSLNPEDTAVYYCATGYGPYLGRPHLTLYYYWGQGTQVTVSS,low polyreactivity
13,QVQVVDSGGGLVQAGGSLLLSCAASGSILGFNAMGWYRQSPGKEMELVASISSSGDSTYYADSEKGRFTISRDNAKNTVYLQMNSLKPEDTAVYYCATEGRTDYNREMEYWGQGSQVTVSS,low polyreactivity
14,QVQVVESGGGLVHAGGSLRLSCAASGITCVWNDMGWYRQPPGKEREFVAGITYRSGRTYYADSVKGRFTISRDNAKNTVYLQMNSLKPEDTAGYYCATTPRYTTYNYWGQGTQVTVSS,high polyreactivity
15,QVQVVESGGGLVKAAGSLGLSCSASGLNFRFYTMGWYRQAPGKERELVAAISTSGGSTYYADSVKGRFTISRDNAKNNVFLQMNSLKPEDTAVYYCIAVYAFNGYDYWGQGTQVTVSS,low polyreactivity
16,QVQVVESGGGLVQAGGRLRLSCAASGSTFKYYVMGWYRQAPGKERELVAAITRSGSTNYADSVKGRFRISRDNAKNTVYLQMNSLKPEDTAVYYCATDSLRLYGGKRDQYYWGQGTQVTVSS,low polyreactivity
17,QVQVVESGGGLVQAGGSIRLSCAASGSILSRYAMGWYRQAPGKERELFAAITSSGGTTYYADSVKGRFTISRDTAKNTVYLQMNSLKPEDTAVYYCADHGSRYGYGDFYYWGQGTQVTVSS,high polyreactivity
18,QVQVVESGGGLVQAGGSLRISCAASGSIFPGYDMGWYRQAPGKERELVAAIRTSGGSTNYADSVKGRFTISRDNAKNTVYLQMNSLKPEDTAVYYCAARTNSPRGTKRYYWGQGTQVTVSS,high polyreactivity
19,QVQVVESGGGLVQAGGSLRLSCAASGIIFKQNVMGRYIQAPGKERELVAAISRGGSTNYADSLKGRFTISRDNAKNTVYLQMNSLKPEDTEVYYCAARFVLRREYGYWGQGTQVTVSS,high polyreactivity
20,QVQVVESGGGLVQAGGSLRLSCAASGRIFYQNAMGWYRPAPGKERELVADISSGGSTYYADSVKGRFTISRDNAKNTVYLQMNSLKPEDTAVYYCNTPSGPGTVGSYRRIWYGYWGQGTQVTVSS,low polyreactivity
21,QVQVVESGGGLVQAGGSLRLSCAASGRIFYTNAMGWYRQAPGKERELVAVISWGGDTTYYADSVKGRFTISRDKAKNTVYLQMNSLKPEDTAVYYCNADWGPTYEIYDSWGQGTQVTVSS,low polyreactivity
